Measured values taken from patent US20100151003A1 (Janssen / Centocor, published 2010).
Like-named read-outs stand apart in the source and are kept apart here. Bridges are numbered along the chain shown (N, C = ends). Where no end group is shown, it is not given here.

Key:
[1] = molecular target: T1, sEGFR-MMB (dimeric soluble EGFR ectodomain mimetibody) (human); test: phage ELISA on coated sEGFR-MMB, chemiluminescence; background typically <200 units
T1 construct: also called sEGFR mimetibody; sEGFR-Fc
T1 sequence (chain, as listed by the source limits assumed): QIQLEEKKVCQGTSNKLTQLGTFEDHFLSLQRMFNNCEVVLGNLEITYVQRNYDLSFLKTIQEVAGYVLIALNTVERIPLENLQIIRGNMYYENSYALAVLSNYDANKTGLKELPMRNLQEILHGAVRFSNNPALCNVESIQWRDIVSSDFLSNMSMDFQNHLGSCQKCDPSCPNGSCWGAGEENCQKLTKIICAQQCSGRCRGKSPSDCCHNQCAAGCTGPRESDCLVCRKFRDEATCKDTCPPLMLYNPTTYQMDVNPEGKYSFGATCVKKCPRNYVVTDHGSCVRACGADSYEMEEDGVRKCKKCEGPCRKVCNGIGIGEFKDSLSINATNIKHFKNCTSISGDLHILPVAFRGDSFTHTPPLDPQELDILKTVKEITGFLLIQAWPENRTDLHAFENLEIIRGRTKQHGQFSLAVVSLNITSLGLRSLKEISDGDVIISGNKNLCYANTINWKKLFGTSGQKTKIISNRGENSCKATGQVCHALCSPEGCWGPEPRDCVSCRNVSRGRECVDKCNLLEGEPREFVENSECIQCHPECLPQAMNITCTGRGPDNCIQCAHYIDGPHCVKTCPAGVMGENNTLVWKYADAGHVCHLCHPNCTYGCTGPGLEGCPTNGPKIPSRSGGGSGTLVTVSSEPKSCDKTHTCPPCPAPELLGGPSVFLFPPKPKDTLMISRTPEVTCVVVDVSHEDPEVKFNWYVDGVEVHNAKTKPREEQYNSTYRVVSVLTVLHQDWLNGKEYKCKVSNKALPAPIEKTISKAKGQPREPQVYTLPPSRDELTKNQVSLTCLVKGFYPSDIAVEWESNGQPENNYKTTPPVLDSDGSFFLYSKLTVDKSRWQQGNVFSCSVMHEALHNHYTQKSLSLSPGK

[2] = molecular target: T1, sEGFR-MMB (dimeric soluble EGFR …); test: phage ELISA, coated sEGFR-MMB
[3] = molecular target: T2, Human extracellular EGFR-His6 (sEGFR-His6) (human, UniProt P00533 25-645); test: phage ELISA, coated sEGFR-His6
T2 construct: Monomeric, expressed in HEK293E, glycosylated; also called sEGFR-6×His; monomeric sEGFR

b-sEGFR-strep = molecular target: T3, b-sEGFR-strep (human, UniProt P00533, biotinylated, sites not given); test: phage ELISA, biotinylated receptor captured on streptavidin
T3 construct: soluble ectodomain, monomeric, strep II tag; captured on streptavidin-coated wells; also called strepII-tagged sEGFR; strep II-tagged sEGFR purchased from Research Diagnostics

biotinylated sEGFR-MMB = molecular target: T4, biotinylated sEGFR-MMB (human, biotinylated with sulfo-NHS-LC-biotin (sites not given)); test: as above
T4 construct: Captured on streptavidin-coated wells in the ELISA; also called b-sEGFR-MMB; b-sEGFR MMB
T4 sequence (chain, as listed by the source limits assumed): as above

biotinylated sEGFR-His6 = molecular target: T5, biotinylated sEGFR-His6 (human, UniProt P00533 25-645, biotinylated (sites not given)); test: as above
T5 construct: Captured on streptavidin-coated wells in the ELISA; also called b-sEGFR-His; b-sEGFR-His6

[4] = molecular target: T1, sEGFR-MMB (dimeric soluble EGFR …); test: phage ELISA on coated sEGFR-MMB; second bar with EGF 10 ug/ml as competitor
[5] = molecular target: T1, sEGFR-MMB (dimeric soluble EGFR …); test: phage ELISA on coated sEGFR-MMB, chemiluminescence; background typically <200 units; remark: listed apart in the source
Control-MMB (CNTO 360) = molecular target: T6, Control-MMB (CNTO 360) (Homo sapiens (Human), UniProt P0DOX5 111-449 = IgG part); test: phage ELISA on coated Control-MMB [A]
T6 construct: Described as human IgG1 heavy chain dimer absent the variable and most of the CH1 domains; also called blank mimetibody scaffold protein

Streptavidin = molecular target: T7, Streptavidin; test: phage ELISA on streptavidin alone [C]
T7 construct: also called Streptavidin alone; SA

B1: S20 library phage hit SEQ ID NO: 46 (peptide)
chain: GGGYICTPSDIDSWYICYL
notes: Tested as whole phage, pIX phagemid display
B1 was tested, and the ELISA signal [1] was 6620 units.

B2: phage P194 (pIII CNL1-11) (peptide)
chain: AGSECFPLAPDWLSCILGG
notes: Tested as whole phage displaying the peptide on pIII; also called PHPEP194; not shown: M13 phage coat protein pIII, mature (TVESC...)
B2: binds [2]; binds [3].

B3: phage P145 (pIII CNL5) (peptide)
chain: AGVLCHRYYHPICYTGG
notes: Tested as whole phage displaying the peptide on pIII; also called PP145; PHPEP145; not shown: M13 phage coat protein pIII, mature (TVESC...)
B3: binds (b-sEGFR-strep); binds (biotinylated sEGFR-MMB); binds (biotinylated sEGFR-His6). B3: binds [4].

B4: phage P146 (pIII CNL5) (peptide)
chain: AGTLCRSFFHPLCYAGG
notes: Tested as whole phage displaying the peptide on pIII; also called PP146; PHPEP146; not shown: M13 phage coat protein pIII, mature (TVESC...)
B4: binds (b-sEGFR-strep); binds (biotinylated sEGFR-MMB); binds (biotinylated sEGFR-His6). B4: binds [4].

B5: S20 library phage hit SEQ ID NO: 49 (peptide)
chain: GGGLLCATTSFRDWFVCFT
notes: as for B1
B5 showed an ELISA signal [1] of 4510 units.

B6: S20 library phage hit SEQ ID NO: 47 (peptide)
chain: GGGSVCVGTAFPGWMVCGP
notes: as for B1
B6 was tested, and the ELISA signal [1] was 4770 units.

B7: phage P177 (pIX S16) (peptide)
peptide: GGGDACTMVFLWCSLGGGSGGSGG
modifications: disulfide 6-13
notes: Tested as whole phage, pIX phagemid display; also called PP177; not shown: M13 coat protein pIX (display carrier at the C end)
Binder B7 has an ELISA signal [5] of 8660 units.

B8: S20 library phage hit SEQ ID NO: 44 (peptide)
chain: GGGWMCFLEGYGASLMCQC
notes: as for B1
B8 was tested, and the ELISA signal [1] was 4800 units.

B9: phage P178 (pIX S17) (peptide)
peptide: GGGRWCYFWWITICELGGGSGGSGG
modifications: disulfide 6-14
notes: Tested as whole phage, pIX phagemid display; also called PP178; not shown: M13 coat protein pIX (display carrier at the C end)
For B9, the ELISA signal [5] was 7910 units.

B10: phage P176 (pIX S20) (peptide)
chain: GGGKTCVSTTFDLWFVCFA
modifications: disulfide 6-17; also: displayed on whole phage via pIX
notes: Tested as whole phage, pIX phagemid display; also called PP176
For B10, the binding result (Control-MMB (CNTO 360)) was “no binding”, the binding result (Streptavidin) was “no binding” and the ELISA signal [1] was 37400 units.

B11: phage P143 (pIII CNL5) (peptide)
chain: AGVLCSNFYHPLCHSGG
notes: Tested as whole phage displaying the peptide on pIII; also called PP143; not shown: M13 phage coat protein pIII, mature (TVESC...)
B11: binds (b-sEGFR-strep); binds (biotinylated sEGFR-MMB); binds (biotinylated sEGFR-His6). B11: binds [4].

B12: S20 library phage hit SEQ ID NO: 45 (peptide)
chain: GGGDSCCSFLTDGTVVCSL
notes: as for B1
B12 gave an ELISA signal [1] of 9540 units.

B13: phage P193 (pIII CNL1-11) (peptide)
chain: AGSYYWGYTVDIRRGG
notes: Tested as whole phage displaying the peptide on pIII; also called PHPEP193; not shown: M13 phage coat protein pIII, mature (TVESC...)
B13: binds [2].

B14: S20 library phage hit SEQ ID NO: 43 (peptide)
chain: GGGPTCDSATRRVLTICAD
notes: as for B1
B14 gave an ELISA signal [1] of 5420 units.
